According to IntAct's records for PubMed 27978489:

B1: T-cell immunoreceptor with Ig and ITIM domains (Homo sapiens), Q495A1 (parent)
chain: MRWCLLLIWAQGLRQAPLASGMMTGTIETTGNISAEKGGSIILQCHLSSTTAQVTQVNWEQQDQLLAICNADLGWHISPSFKDRVAPGPGLGLTLQSLTVNDTGEYFCIYHTYPDGTYTGRIFLEVLESSVAEHGARFQIPLLGAMAATLVVICTAVIVVVALTRKKKALRIHSVEGDLRRKSAGQEEWSPSAPSPPGSCVQAEAAPAGLCGEQRGEDCAELHDYFNVLSYRSLGNCSFFTETG

Variants of: B1
Details: with nect2_human NECTIN2, Q92692
Chain of nect2_human NECTIN2, Q92692 (Q92692 whole entry): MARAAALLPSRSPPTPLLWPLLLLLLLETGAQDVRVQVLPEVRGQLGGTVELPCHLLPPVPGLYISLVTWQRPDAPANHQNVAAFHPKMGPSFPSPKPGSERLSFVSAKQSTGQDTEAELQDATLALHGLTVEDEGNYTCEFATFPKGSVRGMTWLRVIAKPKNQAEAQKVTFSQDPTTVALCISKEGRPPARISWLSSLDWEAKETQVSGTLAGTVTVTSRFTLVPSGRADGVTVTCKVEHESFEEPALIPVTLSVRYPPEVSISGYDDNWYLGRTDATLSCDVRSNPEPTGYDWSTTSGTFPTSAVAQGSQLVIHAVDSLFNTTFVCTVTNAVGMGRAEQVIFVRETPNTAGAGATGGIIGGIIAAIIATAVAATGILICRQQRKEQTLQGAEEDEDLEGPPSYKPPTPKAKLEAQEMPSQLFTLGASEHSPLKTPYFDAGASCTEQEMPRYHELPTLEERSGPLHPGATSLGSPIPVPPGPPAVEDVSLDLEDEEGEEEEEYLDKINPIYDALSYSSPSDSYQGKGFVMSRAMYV

| effect of a mutation on the interaction | Variant |
| --- | --- |
| decreasing interaction strength | MRWCLLLIWAQGLRQAPLASGMMTGTIETTGNISAEKGGSIILQCHLSSTTAQVTQVNWEQQDQLLAICNADLGWHISPSFKDRVAPGPGLGLTLQSLTVNDTGEYFCIYHTYADGTYTGRIFLEVLESSVAEHGARFQIPLLGAMAATLVVICTAVIVVVALTRKKKALRIHSVEGDLRRKSAGQEEWSPSAPSPPGSCVQAEAAPAGLCGEQRGEDCAELHDYFNVLSYRSLGNCSFFTETG [P114A] |
| decreasing interaction strength | MRWCLLLIWAQGLRQAPLASGMMTGTIETTGNISAEKGGSIILQCHLSSTTAQVTQVNWEQQDQLLAICNADLGWHISPSFKDRVAPGPGLGLTLQSLTVNDTGEYFCIYHAYPDGTYTGRIFLEVLESSVAEHGARFQIPLLGAMAATLVVICTAVIVVVALTRKKKALRIHSVEGDLRRKSAGQEEWSPSAPSPPGSCVQAEAAPAGLCGEQRGEDCAELHDYFNVLSYRSLGNCSFFTETG [T112A] |
| decreasing interaction strength | MRWCLLLIWAQGLRQAPLASGMMTGTIETTGNISAEKGGSIILQCHLSSTTAQVTQVNWEQQDQLLAICNADLGWHISPSFKDRVAPGPGLGLTLQSLTVNDTGEYFCIYHTAPDGTYTGRIFLEVLESSVAEHGARFQIPLLGAMAATLVVICTAVIVVVALTRKKKALRIHSVEGDLRRKSAGQEEWSPSAPSPPGSCVQAEAAPAGLCGEQRGEDCAELHDYFNVLSYRSLGNCSFFTETG [Y113A] |
